Measured values: paper PMC4006878 (Organic letters, 2013)

Target: GLP-1R (Homo sapiens, UniProt P43220)
Test: cAMP response element luciferase reporter gene assay in GLP-1R+ CHO-K1 cells
Type: cell-based
Settings: 1 μM of the ligand, Figure 3A

Chain of GLP-1R (P43220 24-463): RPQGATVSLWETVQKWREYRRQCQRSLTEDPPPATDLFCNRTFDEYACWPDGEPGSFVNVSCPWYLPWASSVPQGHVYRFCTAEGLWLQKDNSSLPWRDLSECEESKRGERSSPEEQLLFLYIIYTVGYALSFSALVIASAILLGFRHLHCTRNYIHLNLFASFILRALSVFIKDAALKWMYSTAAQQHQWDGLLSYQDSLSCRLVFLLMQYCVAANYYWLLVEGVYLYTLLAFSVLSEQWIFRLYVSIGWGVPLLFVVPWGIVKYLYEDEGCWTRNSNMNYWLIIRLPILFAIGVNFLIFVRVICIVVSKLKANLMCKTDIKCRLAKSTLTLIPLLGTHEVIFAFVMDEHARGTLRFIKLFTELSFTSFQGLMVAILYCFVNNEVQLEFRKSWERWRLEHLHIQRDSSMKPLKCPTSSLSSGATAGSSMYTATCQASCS

exendin-4_9-39: exendin-4 fragment 9-39 used at 1 μM to inhibit GLP-1R activation
inhibition of GLP-1 agonism at GLP-1R: inhibited
